Data reported in FireProtDB (doi:10.1021/bi002653y).
“And” between values parts separate entries of the source, which are not always exact repeats. Equal entries are not always repeated.

Details: Desulfovibrio desulfuricans (strain ATCC 27774 / DSM 6949 / MB), pH 7, 20 °C, GdnHCl, sodium phosphate 5 mM, reversible: yes, whole UniProt chain shown

B1: Desulfoferrodoxin wild type, P22076 (protein)
chain: MPKHLEVYKCTHCGNIVEVLHGGGAELVCCGEPMKHMVEGSTDGAMEKHVPVIEKVDGGYLIKVGSVPHPMEEKHWIEWIELLADGRSYTKFLKPGDAPEAFFAIDASKVTAREYCNLHGHWKAEN
denaturant midpoint (higher = more stable) (CD, transition: 3): 4.9 M and 5.1 M
unfolding free energy (CD, transition: 3): 11.3 kcal/mol and 12 kcal/mol
denaturant midpoint (higher = more stable) (Fluorescence): 2.3 M
unfolding free energy (Fluorescence): 11.3 kcal/mol
denaturant midpoint (higher = more stable) (Fluorescence, transition: 3): 1.7 M and 2.2 M and 2.9 M
unfolding free energy (Fluorescence, transition: 3): 10.6 kcal/mol and 10.9 kcal/mol
